Experimental data as given in the supplement of paper PMC9112550, “Optimization of the antimicrobial peptide Bac7 by deep mutational scanning” (BMC Biology, 2022).

The sequences below were run on Escherichia coli TOP10 (assay: shrunken log2 fold change of peptide-encoding DNA abundance (4.5 h post-induction vs induction); higher = less antimicrobial activity (less host growth inhibition)). Conditions: time post-induction: 4.5 h; library: site-saturation at positions 5, 18, 19, 20.
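Also: peptides expressed intracellularly from a pBAD plasmid library in pooled LB shake-flask culture, induced with 0.3% L-arabinose, DNA abundance read by NGS, three biological replicates, DESeq2 with apeglm shrinkage.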

RRIRNRPPRLPRPRPRPENAPRP and RRIRGRPPRLPRPRPRPNGSPRP are within 0.2 log units of each other in “shrunken log2 fold change” value: -0.133 for the first, -0.0904 for the second.

First: RRIRLRPPRLPRPRPRPSEYPRP
Second: RRIRYRPPRLPRPRPRPYGCPRP
The “shrunken log2 fold change” value of the first is lower: -0.675 for the first, -0.143 for the second.

First: RRIRFRPPRLPRPRPRPNYEPRP
Second: RRIRKRPPRLPRPRPRPRLAPRP
The “shrunken log2 fold change” value of the first is lower: -0.774 for the first, 0.772 for the second.

RRIRGRPPRLPRPRPRPIKNPRP and RRIRKRPPRLPRPRPRPGINPRP are within 0.2 log units of each other in “shrunken log2 fold change” value: 0.488 for the first, 0.369 for the second.

RRIRPRPPRLPRPRPRPMIYPRP and RRIRQRPPRLPRPRPRPIPNPRP are within 0.2 log units of each other in “shrunken log2 fold change” value: -0.113 for the first, -0.0226 for the second.

Compared with RRIRRRPPRLPRPRPRPWCGPRP, RRIRHRPPRLPRPRPRPQCWPRP is lower in “shrunken log2 fold change” value: 0.282 for the first, -0.112 for the second.

RRIRERPPRLPRPRPRPQQSPRP and RRIRHRPPRLPRPRPRPVFDPRP are within 0.2 log units of each other in “shrunken log2 fold change” value: -0.05 for the first, -0.0994 for the second.

RRIRSRPPRLPRPRPRPKKHPRP and RRIRTRPPRLPRPRPRPWPEPRP are within 0.2 log units of each other in “shrunken log2 fold change” value: -0.0966 for the first, 0.0147 for the second.

Going from RRIRDRPPRLPRPRPRPGLIPRP to RRIRIRPPRLPRPRPRPICTPRP, the “shrunken log2 fold change” value falls from 0.0516 to -0.458.

Compared with RRIRCRPPRLPRPRPRPPYGPRP, RRIRQRPPRLPRPRPRPVMNPRP is higher in “shrunken log2 fold change” value: -0.266 for the first, 0.0954 for the second.

First: RRIRARPPRLPRPRPRPLICPRP
Second: RRIRFRPPRLPRPRPRPFGFPRP
The “shrunken log2 fold change” value of the first is higher: 0.341 for the first, -0.436 for the second.

Compared with RRIRHRPPRLPRPRPRPRGIPRP, RRIRGRPPRLPRPRPRPGGPPRP is higher in “shrunken log2 fold change” value: -0.0565 for the first, 0.968 for the second.

Going from RRIRNRPPRLPRPRPRPHDVPRP to RRIRGRPPRLPRPRPRPVSYPRP, the “shrunken log2 fold change” value rises from -0.0113 to 0.291.

Compared with RRIRGRPPRLPRPRPRPQWYPRP, RRIRGRPPRLPRPRPRPCNKPRP is lower in “shrunken log2 fold change” value: 0.25 for the first, -0.442 for the second.

Going from RRIRGRPPRLPRPRPRPNTHPRP to RRIRTRPPRLPRPRPRPISHPRP, the “shrunken log2 fold change” value falls from 0.102 to -0.328.

RRIRFRPPRLPRPRPRPDNIPRP and RRIRKRPPRLPRPRPRPLHLPRP are within 0.2 log units of each other in “shrunken log2 fold change” value: -0.269 for the first, -0.198 for the second.

RRIRWRPPRLPRPRPRPSPCPRP and RRIRWRPPRLPRPRPRPMPLPRP are within 0.2 log units of each other in “shrunken log2 fold change” value: -0.214 for the first, -0.0398 for the second.

Going from RRIRARPPRLPRPRPRPDLSPRP to RRIRCRPPRLPRPRPRPHFEPRP, the “shrunken log2 fold change” value falls from 0.209 to -0.152.

First: RRIRFRPPRLPRPRPRPYQEPRP
Second: RRIRKRPPRLPRPRPRPGFVPRP
The “shrunken log2 fold change” value of the first is lower: -0.0819 for the first, 0.259 for the second.

First: RRIRIRPPRLPRPRPRPWSPPRP
Second: RRIRSRPPRLPRPRPRPLEHPRP
The “shrunken log2 fold change” value of the first is lower: -0.269 for the first, 0.0173 for the second.

RRIRVRPPRLPRPRPRPTEIPRP and RRIRMRPPRLPRPRPRPYQPPRP are within 0.2 log units of each other in “shrunken log2 fold change” value: 0.221 for the first, 0.0396 for the second.

Compared with RRIRHRPPRLPRPRPRPVYMPRP, RRIRMRPPRLPRPRPRPDPGPRP is higher in “shrunken log2 fold change” value: -0.2 for the first, 0.46 for the second.

RRIRRRPPRLPRPRPRPGIVPRP and RRIRLRPPRLPRPRPRPWIAPRP are within 0.2 log units of each other in “shrunken log2 fold change” value: -0.0478 for the first, 0.0439 for the second.

Going from RRIRARPPRLPRPRPRPGLRPRP to RRIRQRPPRLPRPRPRPPEMPRP, the “shrunken log2 fold change” value falls from 0.331 to -0.162.

Going from RRIRLRPPRLPRPRPRPDDMPRP to RRIRWRPPRLPRPRPRPAHTPRP, the “shrunken log2 fold change” value falls from 0.0411 to -0.172.

Compared with RRIRSRPPRLPRPRPRPRLPPRP, RRIRNRPPRLPRPRPRPPWVPRP is lower in “shrunken log2 fold change” value: 0.315 for the first, -0.0522 for the second.

RRIRTRPPRLPRPRPRPFGVPRP and RRIRPRPPRLPRPRPRPDYPPRP are within 0.2 log units of each other in “shrunken log2 fold change” value: 0.0203 for the first, -0.0173 for the second.

Compared with RRIRSRPPRLPRPRPRPNFLPRP, RRIRFRPPRLPRPRPRPDTVPRP is higher in “shrunken log2 fold change” value: -0.304 for the first, -0.0794 for the second.

Compared with RRIRFRPPRLPRPRPRPIAKPRP, RRIRKRPPRLPRPRPRPWLVPRP is higher in “shrunken log2 fold change” value: -0.181 for the first, 0.177 for the second.

RRIRKRPPRLPRPRPRPSTHPRP and RRIRKRPPRLPRPRPRPWEQPRP are within 0.2 log units of each other in “shrunken log2 fold change” value: -0.17 for the first, 0.0133 for the second.

Compared with RRIRHRPPRLPRPRPRPCKFPRP, RRIRERPPRLPRPRPRPMYRPRP is lower in “shrunken log2 fold change” value: 0.0809 for the first, -0.273 for the second.

First: RRIRSRPPRLPRPRPRPYKFPRP
Second: RRIRIRPPRLPRPRPRPHRFPRP
The “shrunken log2 fold change” value of the first is higher: -0.15 for the first, -0.62 for the second.

Going from RRIRNRPPRLPRPRPRPNRMPRP to RRIRIRPPRLPRPRPRPWIRPRP, the “shrunken log2 fold change” value rises from -0.385 to -0.156.

RRIRRRPPRLPRPRPRPIISPRP and RRIRLRPPRLPRPRPRPDEPPRP are within 0.2 log units of each other in “shrunken log2 fold change” value: -0.155 for the first, -0.0538 for the second.

Compared with RRIRYRPPRLPRPRPRPLSYPRP, RRIRWRPPRLPRPRPRPVYNPRP is lower in “shrunken log2 fold change” value: -0.273 for the first, -0.817 for the second.

Going from RRIRFRPPRLPRPRPRPVKGPRP to RRIRDRPPRLPRPRPRPPASPRP, the “shrunken log2 fold change” value rises from -0.178 to 0.513.

First: RRIRTRPPRLPRPRPRPPYWPRP
Second: RRIRIRPPRLPRPRPRPKYMPRP
The “shrunken log2 fold change” value of the first is higher: 0.0831 for the first, -0.566 for the second.

With RRIRWRPPRLPRPRPRPMSSPRP the “shrunken log2 fold change” value was 0.0453.
